Source: PMC1796551, “Breast cancer metastasis suppressor 1 (BRMS1) inhibits osteopontin transcription by abrogating NF-κB activation”

B1: Mut OPN/NF-kB (dsDNA)
DNA 1: GAATTTCATGCGGACTTCGAAATTCTAAG
DNA 2: CTTAGAATTTCGAAGTCCGCATGAAATTC
B2: OPN/NF-kB (dsDNA)
DNA 1: GAATTTCATGGGGAAGTCCAAATTCTAAG
DNA 2: CTTAGAATTTGGACTTCCCCATGAAATTC

How the values were obtained:
Details in all cases: protein: commercial; chain copies: 2; label: biotin; only one strand given
[1] = target: T1, p65 (RelA) (Homo sapiens, UniProt Q04206 1-551); assay: EMSA; 10 mM Tris, 50 mM KCl, 1 mM DTT, 5 mM MgCl2, 1 ug poly(dI-dC), 20 fmol biotinylated probe, 100 ng p65 or 66 ng p50, room temperature 30 min; pH not stated
[2] = target: p50 (Homo sapiens, UniProt P19838 1-433); assay: as above
[3] = target: T1, p65 (RelA); assay: EMSA; supershift with anti-p65 (lane 6); 10 mM Tris, 50 mM KCl, 1 mM DTT, 5 mM MgCl2, 1 ug poly(dI-dC), 20 fmol biotinylated probe, 100 ng p65 or 66 ng p50, room temperature 30 min; pH not stated

p50, sequence (P19838 1-433): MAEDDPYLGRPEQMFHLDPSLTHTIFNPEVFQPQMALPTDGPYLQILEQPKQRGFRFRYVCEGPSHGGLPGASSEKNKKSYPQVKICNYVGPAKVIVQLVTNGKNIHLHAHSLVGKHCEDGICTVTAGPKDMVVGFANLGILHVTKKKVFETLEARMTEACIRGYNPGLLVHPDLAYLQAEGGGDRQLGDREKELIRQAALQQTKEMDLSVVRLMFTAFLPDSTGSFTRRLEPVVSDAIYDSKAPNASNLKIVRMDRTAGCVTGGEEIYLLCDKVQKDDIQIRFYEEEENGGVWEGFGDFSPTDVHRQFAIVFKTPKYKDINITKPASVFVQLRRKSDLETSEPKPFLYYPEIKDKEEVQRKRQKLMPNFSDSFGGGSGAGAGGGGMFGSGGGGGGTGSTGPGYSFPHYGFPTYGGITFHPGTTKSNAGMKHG
T1 sequence (Q04206 whole entry): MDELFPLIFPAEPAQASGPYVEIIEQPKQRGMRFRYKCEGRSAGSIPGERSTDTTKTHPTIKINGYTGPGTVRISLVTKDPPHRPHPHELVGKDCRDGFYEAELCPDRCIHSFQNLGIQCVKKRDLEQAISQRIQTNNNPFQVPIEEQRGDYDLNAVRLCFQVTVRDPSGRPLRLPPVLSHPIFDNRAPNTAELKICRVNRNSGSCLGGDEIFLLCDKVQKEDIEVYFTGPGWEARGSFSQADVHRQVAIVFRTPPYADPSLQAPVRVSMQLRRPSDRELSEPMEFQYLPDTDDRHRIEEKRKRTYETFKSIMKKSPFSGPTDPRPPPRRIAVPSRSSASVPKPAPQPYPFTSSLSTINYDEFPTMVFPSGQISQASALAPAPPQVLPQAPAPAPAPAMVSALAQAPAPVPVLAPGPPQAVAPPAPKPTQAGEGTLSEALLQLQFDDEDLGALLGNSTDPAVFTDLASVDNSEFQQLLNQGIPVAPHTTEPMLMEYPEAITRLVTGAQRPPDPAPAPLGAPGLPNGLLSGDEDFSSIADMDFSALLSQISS

Binder | binding result [1] | binding result [2] | binding result [3]
B1 | no binding | no binding | 
B2 |  | binds | binds
